The experiment deals with T1, A*0201 (biotinylated pMHC monomer from UV-induced MHC ligand exchange) (human, biotin).
T1 construct: pMHC complexes for aAPC loading and multimer read-out
The experiment is described as follows: pMHC complex from UV-induced MHC ligand exchange, used as control. On the procedure:
Generation of pMHC/anti-CD28 coated beads, T-cell stimulations and readout was performed in a highly defined in vitro system using four different pMHC molecules per stimulation condition and 8 different pMHC molecules per readout condition. […] In order to determine the amount of pMHC monomer obtained by exchange we performed streptavidin-based sandwich ELISAs according to (Rodenko et al., 2006). The purified co-stimulatory mouse IgG2a anti human CD28 Ab 9.3 (Jung et al., 1987) was chemically biotinylated using Sulfo-N-hydroxysuccinimidobiotin as recommended by the manufacturer (Perbio, Bonn, Germany). Beads used were 5.6 μm diameter streptavidin coated polystyrene particles (Bangs Laboratories, Illinois, USA).
Half of the medium was then exchanged by fresh TCM supplemented with 80 U/ml IL-2 and incubating was continued for 3-4 days at 37° C. […] Finally, multimeric analyses were performed by staining the cells with Live/dead near IR dye (Invitrogen, Karlsruhe, Germany), CD8-FITC antibody clone SK1 (BD, Heidelberg, Germany) and fluorescent pMHC multimers. For analysis, a BD LSRII SORP cytometer equipped with appropriate lasers and filters was used. Peptide specific cells were calculated as percentage of total CD8+ cells. Evaluation of multimeric analysis was done using the FlowJo software (Tree Star, Oregon, USA).

With YLLPAIVHI (control for low immunogenic stimulation) [DDX5-001], the binding result is listed as “binds”.

(Values after patent US20150125477A1 (IMMATICS BIOTECHNOLOGIES, published 2015).)
